assay: soluble on expression in E. coli; label from the status in PepcDB or PDB records

| Sequence | soluble on expression in E. coli |
| --- | --- |
| MAAKRPPASTLKWCQQEMGPICEGIGMVVRSQIGYDGRRIEKQIRRKALQTVVMGGQDVDPLKEPNKTNAPLLSPTLPSTNEALQRARVVAAGIETFAKLMSQGTYPGSAGFTVSETGERKYMKQTSPVQSNIVANLMATADKLSKGVISLAPFPLPTITKLGTWVIANPTAQLPIPPQLKSAIPAIGQIETLIQSILGVQGPVSSVSRAPRKLKLEGVTDQVVLEPETIHATVDVEPIDKTLTKEEAEFLIKAARSVDDDNAETAIFGTQKAKPKVYRPELPKNFEVNLEMGNVHTLTRSNESSVPATRIGRLATFGQLAFGLLGGATAEVTRRTFGIGKRLQEEGIPKNPFLSEANADRIVATLCRVRGAALKLGQMLSIQDSSTVPPALLQIFERVRQSADFMPIKQVHRQMKDAFGDDWREKFEHFDDKPFACASIGQVHKAVLKDGRNVAVKVQYPGVAEGIDSDIDNLVSVLSVGGIFPKGMFLDAFVGVARRELKQECDYEREARAMKKFRELIADWQDVYVPEVIDELSSSRVLTTELVYGKPVDACVEEPQVVRDYIAGKFIELCLKEIFLWRFMQTDPNWSNFFLGKHPKTGEPRLVLLDFGASRAYGKKFVDIYMNIIKSAYDGDKKKIIEYSREIGFLTGYETSVMEDAHVESVMIMGETLASNHPYNFANQDVTMRIQKLIPVMLEHRLTSPPEEIYSLHRKLSGCYLLAAKLKATVSCGGLFHEIHENYVFGEDGIDINID | not soluble |
| MSSQPKLRILCLHGYRQCDQSFRQKTGSTRKLVKSLAEFEFVNGVHSVAVDEHVDSSRAWWFSNNEAMSFSSRESTEVAVGFEESVAAVVKFIEENGPFDGLLGFSQGASMVHLLIAKAQLGEIKLPGIRFAIFFSGFLSLSSKHDSLTLLRIKEFPSMHVFGDADEIVARPKSEKMADMFDVEPLRIAHDGGHVVPSMSKHKEKIAGFMREQLDRKIENN | not soluble |
| MINTNLSSNESSAVYIHIPFCEHICYYCDFNKVFLEGQPVDEYVDLLIKEMELTVAKGPIAPVDTVFVGGGTPTTLNEAQIARLCTAIHNTLPLKKDIEFSFEANPGDLSLSKLQAMQDHGVNRISMGVQSFNNELLKKIGRIHTVKDVYQSVENMRKIGFENVSIDLIFSLPGQTEADFQDTLKQALDLDLPHYSAYSLIIEPKTIFYNLMQKGKLFLPGQDAEANMYDLLLNEMEKHGRKQYEISNFAKEGFQSKHNITYWSNEHYYGFGAGAHGYVGNTRYSNFGPIKKYMEPLQENILPTFQQKELTLKEKMEEEMFLGLRKVDGVDKKHFKQKFGQDLDATFANAIQKTTAKGWLENNEENVALTRSGRFLGNNVFQEFL | not soluble |
| MGSDKIHHHHHHMPQLRDSGNHSTAPLDAHTKDEIQSFARIFGIETEYGVSVTGSDRPCDAGQTAMMMFQPIVAEARSTNTYIENGSRLYLDVGSHPEYATAEARDPMDALALDAAGELVMRDLALDAQRRLRSIQGAGSTVHVFKNNVDSAGHSFGCHENYLVRRFVPLKTIEQELLPFLITRQLFTGAGRMGEQGFQITQRADFLDEAVSSATTRSRPMVNTRDEPHADPDAFRRLHVIIGDSNRSQWATMMKLATTHLVLCVIEQAGREGKDSGFARFSFADASAANHKVSRDLTGVEASFDMADGTVMEGGAVAIQERYLEIVERFVGQHPEVCSSLPRTDVHEVIRRWRRVIEAFRSGVSETFADKVDWLAKRRLFDMLRNRAGGRLSVSKLEQLDMDYHDVANGALYASLCRRGAMRTLVNESQAHEAIDVPPHDTRAALRGRFIQSARSHNAQYSCDWTRLSLTSPNRMDVTLLDPFDAQPSDRFLTILEALQ | not soluble |
| MSTSRDRVRQALSHQGSDRIPVDFGATAVTGIHCRVVEALRKHYGLSYKPVKIVDTFQMLGEVDRDLADAMGVDCIGVGGTRDIFDHDTECMHEQVTPWGQKVLVPIQLDLTQDKEGDVYVYAGGDKNYPPSAVMPNGCFFINAIERQQPIDEDKLNPMDNLEEFNSITDEELDVYKKKVNEASATGRAVVASFGGTALGDVAFVPGMGLKEPKGIRSVVEWYMSTVMRQEYLHEIFRRQTDIAIANYEKLWAVLGDKVDVVLTCGTDFGSQESQFCSVEVFNELWLPHYRRMNDWIHEHTTWKVFKHSCGAIVPILPGLIKAGFDIINPVQINAKDMDSGMLKREFGSHLTFWGGGVDTQKMLPFGTPDEIRRHVLGQCEILGKDGGFVFNSVHNIQANVPVENVIAMLDALKTVLEHHHHHH | not soluble |
| DERKRQESLIQSMFMPREILRASLSDVDLNDDGRIKAIRFAERFVAEYEPGKKMKGLYLHGSFGVGKTYLLAAIANELAKRNVSSLIVYVPELFRELKHSLQDQTMNEKLDYIKKVPVLMLDDLGAEAMSSWVRDDVFGPILQYRMFENLPTFFTSNFDMQQLAHHLTYSQRGEEEKVKAARIMERIRYLAYPIEITGPNRR | soluble |
| MGSSHHHHHHSSGLVPRGSHMKRSSPVILVSEDEYGKFDESTNSILVKGKMHHLGISRVIEPGDELIVSGKSFIVSDFSPMYFGRVIRRNTQIISEIDASYIIMRCGLRPGMDILEVGVGSGNMSSYILYALNGKGTLTVVERDEDNLKKAMDNLSEFYDIGNVRTSRSDIADFISDQMYDAVIADIPDPWNHVQKIASMMKPGSVATFYLPNFDQSEKTVLSLSASGMHHLETVELMKRRILVREGATRPASDDLTHTAFITFAIKKSGMVYRI | soluble |
| CSSPKPDAEEQGVPVSPTASDPALLAEIRQSLDATKGLTSVHVAVRTTGKVDSLLGITSADVDVRANPLAAKGVCTYNDEQGVPFRVQGDNISVKLFDDWSNLGSISELSTSRVLDPAAGVTQLLSGVTNLQAQGTEVIDGISTTKITGTIPASSVKMLDPGAKSARPATVWIAQDGSHHLVRASIDLGSGSIQLTQSKWNEPVNVD | soluble |
| MSLSHIHFLIALATLVPVTAPAMQVSTQAPLVDATGQTLHIRGVTWPGFDRAGLTAVGMRNNTLAQLLDRMQASDINAVRVPVCAAVLQRAPVAAAEVAGDSTLRGLDSLQLLDAVVHAATQRGMHVMFAFADGGCDDRAPLLGAQQQAWTRGLVTLARRYGGNANVLGIDLGSSGYRNASWAGNAADQNWNRVASRAAAMVLAQAPRWVVGVEGVGSNAVCSDPGRKALGSNLQPFACVPLDIAPRHLVLMPKLAGPDRDTTDAFAAPGFAQALPAMWQRDFGQFAIDHTVVPVSLGGGLGDGDPRDPAWQTALSGYLANTGMRSAFLGSWETSNANNGGLLAPDGSPRADKLLILRHAWGMLPVMPAIATATGDSTKNASGTKGWNSTFTGTATSTGSGYSGGAVLLDPIPSDAFITALNSTQMNFGGIKAALAGAYLEVTGPKGKTTVYVTDLYPDGASGGLDLSYNAFAAIGNLADGHIPISWKVVRAPITGNVQYRIKEGSSRYWAAIQVRHHIYPVVKLEVKQGSTWTSLPKTPYNHFVGTNLGNKPLSIRITDIRGKVIADKIPALPEYGGSAAYFEPGHVQFPEGHHHHHH | soluble |
| MVLMIVSGRSGSGKSVALRALEDMGFYCVDNLPVVLLPDLARTLADRQISAAVSIDVRNMPESPEIFEQAMNNLPGAFSPQLLFLDADRNTLIRRYSDTRRLHPLSSKNLSLESAIDKESDLLEPLRSRADLIVDTSEMSVHELAEMLRTRLLGKRERELTMVFESFGFKHGIPIDADYVFDVRFLPNPHWDPKLRPMTGLDKPVAAFLDRHTEVHNFIYQTRSYLELWLPMLETNNRSYLTVAIGCTGGKHRSVYIAEQLADYFRSRGKNVQSRHRTLEKRKT | not soluble |
| MSDMNNPADDNNGAMDDLWAEALSEQKSTSEKSAADAVFQQFGGGDVSGTLQDIDLIMDIPVKLTVELGRTRMTIKELLRLTQGSVVALDGLAGEPLDILINGYLIAQGEVVVVADKYGVRITDIITPSERMRRLSR | not soluble |
| MAHHHHHHMDIERLAKNATEITHQSLMLKNIQKEQNNYCKQCGYIYNYDDYMYMYMKRFNLSKWRETSNCLSGRNPYGPFSGGMESSQFDNENCIRCIYCGAIIDTIEMYDHWNGKESYIELNSYREKFIFDKNKKSYWKNKITSLEKNVSLFKEDQNQAYNITYEKCTDCGNDFLHFINIQTRSADEGSTIIYFCPNCKKQTTVNN | not soluble |
| MNVMQENQIKLIEHIKQAVVQAVGLEETEVPEILLEVPKDKKHGDYSTNIAMQLARVAKKAPRQIAESIVPELKKDTKLIKEVEIAGPGFINFYLDNAYLTDLVPVILTEDKKYG | not soluble |
| GPLGSQELRLRVQGKEKHQMLEISLSPDSPLKVLMSHYEEAMGLSGHKLSFFFDGTKLSGKELPADLGLESGDLIEVWG | soluble |
| VKRGLKPIVGLNQHIQQISPEQMGIRLDPDSLPIELRELANKHNAMLDRLQTGFRRLSEFSSDIAHELKTPLTNITTQNQVILGACRTSEEYQDAIASTLEELNRITKTINDLLYIAKAENKLIHRHDEVFAVQEEIDRLVAYFEILAEDAEVRIVSSGDGQLYM | not soluble |
| LADYGRTAAVNRVEMRDTELGIVTAGVSYQYVREVFPNASVLKLGMVYPLPMDLIREFASKVTKLIVVEELDAFIEDQVKAAGISVTGKEAIPLCGELTPGRLRAAFGIPGAPQVTVENLPGRPPNMCPGCPHRGVFFTLNQLKAYVTGDIGCYTLGFMPPLNAMDTCVCMGASISSASGIVRVLSDEEKKKVVAVIGDSTFLHTGVNSLMEMAYNKAPATVVILDN | not soluble |
| MSENSIRLTQYSHGAGCGCKISPKVLETILHSEQAKFVDPNLLVGNETRDDAAVYDLGNGTSVISTTDFFMPIVDNPFDFGRIAATNAISDIFAMGGKPIMAIAILGWPINKLSPEIAREVTEGGRYACRQAGIALAGGHSIDAPEPIFGLAVTGIVPTERVKKNSTAQAGCKLFLTKPLGIGVLTTAEKKSLLKPEHQGLATEVMCRMNIAGASFANIEGVKAMTDVTGFGLLGHLSEMCQGAGVQARVDYDAIPKLPGVEEYIKLGAVPGGTERNFASYGHLMGEMPREVRDLLCDPQTSGGLLLAVMPEAENEVKATAAEFGIELTAIGELVPARGGRAMVEIR | not soluble |
| SLRQIRTVIQYQTVRYDILPLSPVSRNRLAQVKRKILVLDLDETLIHSHHDGVLRPTVRPGTPPDFILKVVIDKHPVRFFVHKRPHVDFFLEVVSQWYELVVFTASMEIYGSAVADKLDNSRSILKRRYYRQHCTLELGSYIKDLSVVHSDLSSIVILDNSPGAYRSHPDNAIPIKSWFSDPSDTALLNLLPMLDALRFTADVRSVLSRNLHQHRLW | soluble |
| MFVDRQRIDLLNRLIDARVDLAAYVQLRKAKGYMSVSESNHLRDNFFKLNRELHDKSLRLNLHLDQEEWSALHHAEEALATAAVCLMSGHHDCPTVITVNADKLENCLMSLTLSIQSLQKHAMLEKA | soluble |
| VNTFSVSRLALALAFGVTLTACSSTPPDQRPSDQTAPGTSSRPILSAKEAQNFDAQHYFASLTPGAAAWNPSPITLPAQPDFVVGPAGTQGVTHTTIQAAVDAAIIKRTNKRQYIAVMPGEYQGTVYVPAAPGGITLYGTGEKPIDVKIGLSLDGGMSPADWRHDVNPRGKYMPGKPAWYMYDSCQSKRSDSIGVLCSAVFWSQNNGLQLQNLTIENTLGDSVDAGNHPAVALRTDGDQVQINNVNILGRQNTFFVTNSGVQNRLETNRQPRTLVTNSYIEGDVDIVSGRGAVVFDNTEFRVVNSRTQQEAYVFAPATLSNIYYGFLAVNSRFNAFGDGVAQLGRSLDVDANTNGQVVIRDSAINEGFNTAKPWADAVISNRPFAGNTGSVDDNDEIQRNLNDTNYNRMWEYNNRGVGSKVVAEAKK | soluble |

Source: the DeepSol protein solubility set
